Source: the nanobody polyreactivity screen of Harvey et al. (2022)

Assay: yeast display, Sf9 membrane polyspecificity reagent, FACS + sequencing; frameworks hold sequencing errors
Outline: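 Galactose-induced (36–48 hours) yeast carrying a synthetic nanobody display library were exposed to 10% biotinylated, detergent-solubilized Sf9 membrane reagent at 4 °C for 1 hour. FACS followed streptavidin microbead enrichment, using low and high (top ~1%) gates for expression (anti-HA) and reagent binding (streptavidin). Colony PCR, MiSeq 2 × 250 sequencing and CDR-length filtering followed. Labels for polyreactivity reflect the gate of origin.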

Row | Sequence | polyreactivity (PSR sort gate)
1 | QVQLVESGGGLVQAGGSLRLSCAASGRIFYLYAMGWYRQAPGTEREFVASITVSGSSTYYADSVKGRFTISRDNAKNTVYLQMNSLKPEDTAVYYCNTDAVRSYVWWGTSLYDYWGQGTQVTVSS | low polyreactivity
2 | QVQLVESGGGLVQAGGSLRLSCAASGRIFYLYGMGWYRQAPGKERELVAAIDWSDGSTYYADSVKGRFTISRDNAKNTVYLQMNSLKPEDTAVYYCAADGWAAWLYDYWGQGTQVTVSS | low polyreactivity
3 | QVQLVESGGGLVQAGGSLRLSCAASGRIFYLYTMGWYRQAPGKEREFSTYYADSVKGRFTISRDNAKNTVYLQMNCLKPEDTAVYYCAAADHPPVWYGYWGQGTQVTVSS | low polyreactivity
4 | QVQLVESGGGLVQAGGSLRLSCAASGRIFYLYTMGWYRQAPGKERELVAAITRAGRTYYADSVKGRFTISRDNAKNTVYLQMNSLKPEDTAVYYCAAAFLSRVQGYDSWGQGTQVTVSS | high polyreactivity
5 | QVQLVESGGGLVQAGGSLRLSCAASGRIFYNNVMGWYRQAPGKERELVAAISGNGGSTYYADSVKGRFTISRDNAKNTVYLQMNSLKPEDTAVYFCAADDLYTDYETWWRRGDYWGQGTQVTVSS | low polyreactivity
6 | QVQLVESGGGLVQAGGSLRLSCAASGRIFYNYAMGWYRQAPGKERELVAAITGGASTYADSVKGRFTISRDNAKNTVYLQMNSLKPEDTAVYYCAVDYYTYSLASGRTRMDYWGQGTQVTVSS | high polyreactivity
7 | QVQLVESGGGLVQAGGSLRLSCAASGRIFYNYVMGWYRQAPGKERELVAAISSSGGSTYYADSVKGRFTISRDNAKNTVYLQMNSLKPEDTAVYYCGTTRRVPGEYWGQGTQVTVSS | high polyreactivity
8 | QVQLVESGGGLVQAGGSLRLSCAASGRIFYPNAMGWYRQARGKERELVAGISSGGGRTYYADSVKGRFTISRDNAKNTVYLQMNSLKPEDTAVYYCATVGRGYDERHNYWGQGTQVTVSS | high polyreactivity
9 | QVQLVESGGGLVQAGGSLRLSCAASGRIFYPNVMGWYRQAPGKERELVAAITWSSGSTYYADSVKGRFTISRDNAKNTVYLQMNSLKPEDTAVYYCAAGLRWHRKFYYWGQGTQVTVSS | high polyreactivity
10 | QVQLVESGGGLVQAGGSLRLSCAASGRIFYPYAMGWYREAPGKERELVAAITVRGGRTYYADSVKGRFTFSRDNAKNTVYLQMNSLKPEDTAVYYCAARRWGAYRHGYWGQGTQVTVSS | high polyreactivity
11 | QVQLVESGGGLVQAGGSLRLSCAASGRIFYPYAMGWYRQAPGKERELVAAIDKGGGSTYYADSVKGRFTISRDNAKNTVYLQMNSLKPEVTAVYYCAAGWEYPYDYWGQGTQVTVSS | low polyreactivity
12 | QVQLVESGGGLVQAGGSLRLSCAASGRIFYPYAMGWYRQAPGKERELVAAISRSGGSTYYADSVKGRFTISRDNAKNTVYLQMNSLKPEDTAVYYCAARRGFGPDGEMDYWGQGTQVTVSS | low polyreactivity
13 | QVQLVESGGGLVQAGGSLRLSCAASGRIFYPYAMGWYRQAPGKERELVAAISRSGGSTYYADSVKGRFTISRDNAKNTVYLQMNSLKPEDTAVYYCAKVTSSGDAVLTQIPYGYDYWGQGTQVTVSS | low polyreactivity
14 | QVQLVESGGGLVQAGGSLRLSCAASGRIFYPYAMGWYRQAPGKERELVAAISSSGGSTYYADSVKGRFTISRDNAKNTVYLQMNSLKPEDTAVYYCNKYSYTYQNPYDSWGQGTQVTVSS | high polyreactivity
15 | QVQLVESGGGLVQAGGSLRLSCAASGRIFYPYAMGWYRQAPGKERELVAAITGRGGSTYYADSVKGRFTISRDNAKNTVYLQMNSLKPEDTAVYYCATVQSGRVRTYDYWGQGTQVTVSS | high polyreactivity
16 | QVQLVESGGGLVQAGGSLRLSCAASGRIFYPYAMGWYRQAPGKERELVAAITWSGGSTYYADSVKGRFTISRDNAKNTVYLQMNSLKPEDTAVYYCAKDHSYGAYYYWGQGTQVTVSS | high polyreactivity
17 | QVQLVESGGGLVQAGGSLRLSCAASGRIFYPYVMGWYRQAPGKERELVAAISDTTGSTYYADSVKGRFTISRDNAKNTVYLQMNSLKPEDTEVFYCAAGWFYATYWRFYYWGQGTQVTVSS | low polyreactivity
18 | QVQLVESGGGLVQAGGSLRLSCAASGRIFYQNAMGWYRQAPGKARELVADSASGGSTYYADSVKGRFTISRDNAKNTVYLQMNSLKPEDPAVYYCATAVLYGDGWYYYWGQGTQVTVSS | low polyreactivity
19 | QVQLVESGGGLVQAGGSLRLSCAASGRIFYQNPMGWYRPAPGKERELVADISSGGSTYYADSVKGRFTISRDNAKNTVYLQMNSLKPEDTAGYYCNTPSGPGTVGSYRRIWYGYWGQGSQVTVSS | low polyreactivity
20 | QVQLVESGGGLVQAGGSLRLSCAASGRIFYQYAMGWYRPAPGKERELVAAIRWSGGSTYYADSVKGRFTISRDNAKNTVYLQMNSLKQEDTAVYYCNARYPYWGAYYDYDYWGQGTQVTVSS | low polyreactivity
21 | QVQLVESGGGLVQAGGSLRLSCAASGRIFYRNAMGWYRKAPGKEREWVAAISSSAGSTFYADSVKGRFTISRDNSKNTVYLQMNSLKPEDTAVYYCAAGSGTFVTRYRYGYWGQGTQVTVSS | high polyreactivity
22 | QVQLVESGGGLVQAGGSLRLSCAASGRIFYRNAMGWYRQAPGKERELVAAISRSGGTTYYADSVKGRFTISRDNAKNTVYLQMNSLKPEDTAVYYCAALVPYSYPGYYYWGQGTQVTVSS | high polyreactivity

Row | Sequence | polyreactivity (PSR sort gate)
23 | QVQLVESGGGLVQAGGSLRLSCAASGRIFYRNAMGWYRQAPGKERELVAAISYSGGRTYYADSVKGRFTISRDNAKNTVYLQMNSLKPEDTAVYYCAARYAWGYVDPGDYWGQGTQVTVSS | high polyreactivity
24 | QVQLVESGGGLVQAGGSLRLSCAASGRIFYRNAMGWYRQAPGKERELVAAITGSGGSTYYADSVKGRFTISRDNAKNTVYLQMNSLKPEDTAVYYCNKPYFLYRPLGTGMEYWGQGTHVTVSS | high polyreactivity
25 | QVQLVESGGGLVQAGGSLRLSCAASGRIFYRNAMGWYRQAPVKERELVASITWRGGRTYYADSVKGRFTISRDNAKNTVYLQMNSLKQEDTAVYYCNAAPRTYNAWDFDYWGQGTQVTVSS | high polyreactivity
26 | QVQLVESGGGLVQAGGSLRLSCAASGRIFYRYAMGWYRQAPGKERELVAAINDGGSTYYADSVKGRFTISRDNAKNTVYLQMNSLKPEDTAVYYCNVVNEHQSDFVVPFDYNHWGQGTQVSVSS | low polyreactivity
27 | QVQLVESGGGLVQAGGSLRLSCAASGRIFYRYAMGWYRQAPGKERELVAAISGSVGSTYADSVKGRFTISRDNAKNTVYLQMNSLKPEDTAVYYCARETYRRYGAYDYWGQGTQVTVSS | low polyreactivity
28 | QVQLVESGGGLVQAGGSLRLSCAASGRIFYRYAMGWYRQAPGKERELVATISRSGGSTNYADSVKGRFTISRDNAKNTVYLQMNSLKPEDTAVYYCNALYLSTRSGDYWGQGTQVTVSS | high polyreactivity
29 | QVQLVESGGGLVQAGGSLRLSCAASGRIFYRYGMGRYRPAHGKVRELVASITRGGSTYYADSVKWRFTISRDNAKNTVYLQMNSLKPEDTAVYDSNRDIGGTSVLDDYWGQGTQVTVSS | low polyreactivity
30 | QVQLVESGGGLVQAGGSLRLSCAASGRIFYRYGMGWYRQAPGKERELVASITRGGSTYYADSVKGRFTISRDNAKNTVYLQMNSLKPEDTAVYYCNAQTRYRYQYGYLGGTGYNYWGQGTQVTVSS | low polyreactivity
31 | QVQLVESGGGLVQAGGSLRLSCAASGRIFYRYGMGWYRQAPGKERELVASITRGGSTYYADSVKGRFTISRDNAKYTVYLQMNSLKPEDTAVYYCATKSSAGYDYWGQGTQVTVSS | low polyreactivity
32 | QVQLVESGGGLVQAGGSLRLSCAASGRIFYRYSMGWYRQAPGKERELVAGISSGGRTNYADSVKGRFTISRDNAKNTVYLQMNSLKPEDTAVYYCNKARSRWSDARSSFGYDYWGQGTQVTVSS | low polyreactivity
33 | QVQLVESGGGLVQAGGSLRLSCAASGRIFYSNAIGWYRQAPGKERELVAAIRDSAGSTRYADSVKGRFTISRDNAKNTVYLQMNSLKPVDTAVYYCNKDYVSIYFEYLDDYWGQGTQVTVSS | low polyreactivity
34 | QVQLVESGGGLVQAGGSLRLSCAASGRIFYSNAMGWYRQAPGKERELVAAIRDSAGSTRYADSVKGRFTISRDNAKNTVYLQMNSLKPEDTAVYYCNKDYVSIYFEYLDDYWGQGTQVTVSS | low polyreactivity
35 | QVQLVESGGGLVQAGGSLRLSCAASGRIFYSYAMGGYRQAPGKERELVAAISSAGSTYYADSVKGSFTISRDNAKNTVYLQMNSLKPEDTAVYYSAKGIWPYHGYRLQRVYDSWGQGTQVTVSS | high polyreactivity
36 | QVQLVESGGGLVQAGGSLRLSCAASGRIFYSYAMGWYRQAPGKELELVAAIDESDGSTYYADSVKGRFTISRDNAKNTVYLQMNSLKPEDTAVYYCAADSLLVLFDYWGQGTQVTVSS | low polyreactivity
37 | QVQLVESGGGLVQAGGSLRLSCAASGRIFYSYAMGWYRQAPGKERELVARISSGGSTNYADSVKGRFTISRDNAKNTVYLQMNSLNPEDTAVYYCAAATIWSGVHYGYWGQGTQVTVSS | low polyreactivity
38 | QVQLVESGGGLVQAGGSLRLSCAASGRIFYSYAMGWYRQAPGKERELVAVITYRGGRTYYADSVKGRFTISRDNAKNTVYLQMNSLKPEDTAVYYCARDPQFYLHTVTDGAYNYWGQGTQVTVSS | low polyreactivity
39 | QVQLVESGGGLVQAGGSLRLSCAASGRIFYSYGMGWSRQGPGKERELVASITISGGGSTYYADSVKGRFTISRDNAKNTVYLQMISLKPEATAVYYCAATLTVWKYIYDYWGQGTQVTVSS | high polyreactivity
40 | QVQLVESGGGLVQAGGSLRLSCAASGRIFYSYTMGWYRQAPGKERELVAGINRSVGSTYYADSVKGRFTISRDNAKNTVYLQMNSLKPEDTAVYYCAAGSRRRSYYTFSSVHGHYYWGQVTQVTVSS | high polyreactivity
41 | QVQLVESGGGLVQAGGSLRLSCAASGRIFYTNAMGWYRQAPGKERELVATISSSGGRTYLRNSVKGRFTLSRDNAKNTVYLQMNSLKPEDTAVDYCAAGWSYPVRNIYYYWGQGTQVTVSS | high polyreactivity
42 | QVQLVESGGGLVQAGGSLRLSCAASGRIFYTNTMGWYRQAPGKERELVAAIRSGTRTYYADSVKGRFTISRDNAKNTVYLQMNSLKPEDTAVYYCAAYYSYYGGDYWGQGTQVTVSS | low polyreactivity
43 | QVQLVESGGGLVQAGGSLRLSCAASGRIFYVNVMGWYRQAPGKERELVAAIYWSDGSTYYADSVKGRFTISRDNAKNTVYLQMNSLKPEDTAVYYCNRRGPYGYKAWAIGTIGDLDYWGQGTQVTVSS | low polyreactivity
